Laboratory results taken from patent US20210009686A1 (BEIJING XUANYI PHARMASCIENCES, published 2021).

Key:
claudin 18.2 (CLDN18.2) [1] = biological target: T1, claudin 18.2 (CLDN18.2) (human); experiment: in-cell ELISA, HEK293-CLDN18.2 cells
T1 construct: also called Claudin 18 isotype 2; HEK293-CLDN18.2
Protocol: (§1) In-cell ELISAs were performed as follows: 5×10³ HEK293-CLDN18.2 cells were seeded per well in a poly-L-lysine-coated 96-well plate. The plates were then incubated at 37° C. with 5% CO₂ for 2 days. Following incubation, culture media was removed from each well, and the HEK293-CLDN18.2 cells were blocked with 200 μl blocking buffer (3% BSA/PBS (pH 7.4)) per well for 1 hour at room temperature. Each hybridoma supernatant was incubated with cells at room temperature for 1 hour. Cells were gently washed 3 times with 200 μl PBS (pH 7.4) containing 1 mM Ca²⁺ and 0.5 mM Mg²⁺. Next, cells were incubated with 100 μl of HRP-conjugated goat anti-human IgG (H+L) antibody for 1 hour at room temperature. Following the incubation, the cells were washed three times with 200 μl PBS (pH 7.4) containing 1 mM Ca²⁺ and 0.5 mM Mg²⁺. 100 μl of 1-Step™ Ultra TMB-ELISA Substrate was added to each well, and the reactions were stopped by addition of 50 μl of stop solution. OD₄₅₀ was measured using CLARIOStar microplate reader. The in-cell ELISAs were repeated for each clone using HEK293-CLDN18.1 cells.
The in-cell ELISAs were performed as described above. […] Cells were washed, and analyzed by FACS.

claudin 18.1 (CLDN18.1) = biological target: T2, claudin 18.1 (CLDN18.1) (human, UniProt P56856 1-261); experiment: in-cell ELISA, HEK293-CLDN18.1 cells
T2 construct: also called HEK293-CLDN18.1
Protocol: as §1

claudin 18.2 (CLDN18.2) [2] = biological target: T1, claudin 18.2 (CLDN18.2); experiment: FACS, HEK293-CLDN18.2 cells
Protocol: The interaction of 20 purified chimeric antibodies with CLDN18.2 was assessed by in-cell ELISAs and FACS using HEK293-CLDN18.2 cells. […] The FACS assays were performed as follows: Serial dilutions for each antibody clone shown in Tables 7 and 8 were prepared and stained with HEK293-CLDN18.2 cells on ice for 30 min, with final antibody concentrations of 10 g/ml, 3 g/ml, 1 g/ml, 0.3 μg/ml, 0.1 μg/ml, 0.03 μg/ml, 0.01 μg/ml, and 0 μg/ml. […] Cells were washed, and analyzed by FACS.

T2 sequence (P56856 whole entry): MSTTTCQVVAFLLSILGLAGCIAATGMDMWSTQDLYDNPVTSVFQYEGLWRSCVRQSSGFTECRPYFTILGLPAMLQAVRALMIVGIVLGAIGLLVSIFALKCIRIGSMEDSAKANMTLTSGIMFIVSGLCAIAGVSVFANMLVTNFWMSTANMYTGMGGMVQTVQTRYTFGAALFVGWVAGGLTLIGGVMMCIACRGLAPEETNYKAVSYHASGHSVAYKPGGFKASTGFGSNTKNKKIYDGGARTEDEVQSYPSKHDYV

B1: chimeric Ab 10-J10-B (antibody, V domains shown)
VH: QVQLQQSGAELARPGASVKLSCKASGYTFTSWSISWVKQRTGQGLEWIGEIYPRSDNIHYNEKFKGKATLTADKSSSTVYMQLSSLTSEDSAVYFCARAYYGNSFAYWGQGTLVTVSA
VL: DIVMTQSPSSLTVTAGEKVTMTCKSSQILLNSGNQKNYLTWYQQKPGQPPKLLIYWASTRESGVPDRFTGSGSGTDFSLTISSVQAEDLAIYYCQNDYYYPFTFGSGTKLEIK
notes: also called 10-110-B; 10-10-B
EC50 (claudin 18.2 (CLDN18.2) [1]): 0.062 µg/mL | binding result (claudin 18.1 (CLDN18.1)): no binding (tested: 1 µg/ml) | EC50 (claudin 18.2 (CLDN18.2) [2]): 0.141 µg/mL

B2: chimeric Ab 6-C5-A (antibody, V domains shown)
VH: EVQLVESGGGLVKPGGSRKLSCAASGFTFSDYGMHWVRQAPEKGLEWVAYISSGSSTIYYADTMKGRFTISRDNAKNTLFLQMTSLRSEDTAMYYCTRFARGNTMDYWGQGTSVTVSS
VL: DIVMTQSPSSLTVTAGEKVTMSCKSSQSLLNSGNQRNYLTWYQRKPGQPPKLLIYWASTRESGVPDRFTGSGSGTDFTLTISSVQAEDLTFYYCQNGYSYPLTFGAGTKLELK
EC50 (claudin 18.2 (CLDN18.2) [1]): 0.058 µg/mL | binding result (claudin 18.1 (CLDN18.1)): no binding (tested: 1 µg/ml) | EC50 (claudin 18.2 (CLDN18.2) [2]): 0.044 µg/mL

B3: chimeric Ab 9-N14-A (antibody, V domains shown)
VH: EVQLVESGGGLVKPGGSRKLSCAASGFTFSDYGMYWVRQAPEKGLEWLAYISSGSNNIYYADTVKGRFTISRDNAKNTLFLQMTSLRSEDTAMYYCARIARGNAMDYWGQGTSVIVSS
VL: DIVMTQSPSSLTVTAGEKVTMSCKSSQSLLNSGNQKNYLTWYQQKPGQPPKLLIYWASTRESGVPDRFTGSGSGTDFTLTISSVQAEDLAVYYCQNDYIYPLTFGAGTKLGLK
EC50 (claudin 18.2 (CLDN18.2) [1]): 0.218 µg/mL | binding result (claudin 18.1 (CLDN18.1)): no binding (tested: 1 µg/ml) | EC50 (claudin 18.2 (CLDN18.2) [2]): 0.075 µg/mL

B4: chimeric Ab 9-M7-A (antibody, V domains shown)
VH: EVQLVESGGALVKPGGSLKLSCAASGFTFSNYAMSWIRQTPEKRLEWVATIIIGGTYTYYPDSVKGRFTISRDNAKNTLYLQMSSLRSEDTALYYCARQVYGNSFAYWGQGTLVTVSA
VL: DIVMTQSPSSLTVTAGEKVTMSCKSSQSLLNSGNQKNYLTWYQQKPGQPPKLLIYWASTRESGVPDRFTGSGSGTDFTLTISSVQAEDLAVYYCQNNYIYPFTFGSGTKLEIK
EC50 (claudin 18.2 (CLDN18.2) [1]): 0.154 µg/mL | binding result (claudin 18.1 (CLDN18.1)): no binding (tested: 1 µg/ml) | EC50 (claudin 18.2 (CLDN18.2) [2]): 0.095 µg/mL

B5: chimeric Ab 9-B11-A (antibody, V domains shown)
VH: EVQLVESGGGLVKPGGSRKLSCAASGFTFSDYGMHWVRQAPEKGLEWVAYISSGSSPIYYADTVKGRFTISRDNAKNTLFLQMTSLRSEDTAMYYCARFARGNAMDYWGQGTSVTVSS
VL: DIVMTQSPSSLTVTAGEKVTMSCKSSQSLLNSGNQKNYLTWYQQKPGQPPKLLIYWASTRDSGVPDRFTGSGSGTDFTLTISSVQAEDLAVYYCQNNYYYPLTFGAGTNLELK
EC50 (claudin 18.2 (CLDN18.2) [1]): 0.069 µg/mL | binding result (claudin 18.1 (CLDN18.1)): no binding (tested: 1 µg/ml) | EC50 (claudin 18.2 (CLDN18.2) [2]): 0.045 µg/mL

B6: chimeric Ab 1-M5-A (antibody, V domains shown)
VH: EVQLVESGGALVKSGGSLRLSCAASGFTFSNNAMSWIRQTPEKRLEWVATIIIGGTYTYYPDSVKGRFTISRDNAKNTLYLQMSSLRSEDTAFYYCARQVYGNSFAYWGQGTLVSVSA
VL: DIVMTQSPSSLTVTAGEKVTMSCKSSQSLLNSGNQKNYLTWYQQKPGQPPKLLIYWASTRESGVPDRFTGSGSGTDFTLTISSVQAEDLAVYYCQNNYFYPFTFGSGTKLEIK
EC50 (claudin 18.2 (CLDN18.2) [1]): 0.042 µg/mL | binding result (claudin 18.1 (CLDN18.1)): no binding (tested: 1 µg/ml) | EC50 (claudin 18.2 (CLDN18.2) [2]): 0.044 µg/mL
